The values that follow come from the supplement of paper PMC9428881.

This data set is described as follows: background-corrected fluorescence of 3'-dye-labeled ssDNA relative to brightest sequence (3'-GCGCG) (fraction); higher = brighter dye fluorescence (less quenching). The gist of the method:
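Fluorescence values are background-corrected using unlabeled oligos and expressed relative to the brightest sequence. The single-stranded DNA was made on glass slides by light-directed phosphoramidite synthesis, each of 1024 permuted pentamers ending beside a 3' Cy3 or Cy5 dye. Scans at 532 or 635 nm were taken before and after overnight ethylenediamine/ethanol deprotection, and each value averages 10 features per array and at least 3 syntheses.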

± gives the standard error.

Take “TTTTTTGAGCATGCTGCGCATTTTTTTTTTTTTTTCTAAT [TAATC]”: the background-corrected fluorescence came to 0.542 ± 0.015 (dye: Cy3 (3' terminal)) and 0.394 ± 0.027 (dye: Cy5 (3' terminal)).

As to “TTTTTTGAGCATGCTGCTCATTTTTTTTTTTTTTTCTAAG [GAATC]”, the background-corrected fluorescence came out at 0.542 ± 0.044 (dye: Cy3 (3' terminal)) and 0.427 ± 0.031 (dye: Cy5 (3' terminal)).

Turning to “TTTTTTGAGCATGCTGCTGATTTTTTTTTTTTTTTCTAAC [CAATC]”, the background-corrected fluorescence reads like this: (dye: Cy3 (3' terminal)) 0.407 ± 0.026; (dye: Cy5 (3' terminal)) 0.316 ± 0.032.

For the sequence “TTTTTTGAGCATGCTGCTGCTTTTTTTTTTTTTTTCTAAA [AAATC]”, the background-corrected fluorescence came out at 0.569 ± 0.008 (dye: Cy3 (3' terminal)) and 0.457 ± 0.021 (dye: Cy5 (3' terminal)).

Turning to “TTTTTTGATCAGCAGCAGCATTTTTTTTTTTTTTTCGTTT [TTTGC]”, the background-corrected fluorescence came to 0.528 ± 0.017 (dye: Cy3 (3' terminal)) and 0.393 ± 0.026 (dye: Cy5 (3' terminal)).

In the case of “TTTTTTGATCAGCAGCATCATTTTTTTTTTTTTTTCGTTG [GTTGC]”, the background-corrected fluorescence amounted to 0.533 ± 0.023 (dye: Cy3 (3' terminal)) and 0.422 ± 0.051 (dye: Cy5 (3' terminal)).

For the sequence “TTTTTTGATCAGCAGCATGATTTTTTTTTTTTTTTCGTTC [CTTGC]”, the background-corrected fluorescence reads like this: (dye: Cy3 (3' terminal)) 0.417 ± 0.036; (dye: Cy5 (3' terminal)) 0.321 ± 0.028.

Take “TTTTTTGATCAGCAGCATGCTTTTTTTTTTTTTTTCGTTA [ATTGC]”: the background-corrected fluorescence came out at 0.561 ± 0.012 (dye: Cy3 (3' terminal)) and 0.398 ± 0.052 (dye: Cy5 (3' terminal)).

“TTTTTTGATCAGCATCAGCATTTTTTTTTTTTTTTCGTGT [TGTGC]”: the background-corrected fluorescence worked out at 0.571 ± 0.022 (dye: Cy3 (3' terminal)) and 0.466 ± 0.037 (dye: Cy5 (3' terminal)).

“TTTTTTGATCAGCATCATCATTTTTTTTTTTTTTTCGTGG [GGTGC]” registered a background-corrected fluorescence (dye: Cy3 (3' terminal)) of 0.622 ± 0.021 and a background-corrected fluorescence (dye: Cy5 (3' terminal)) of 0.483 ± 0.033.

“TTTTTTGATCAGCATCATGATTTTTTTTTTTTTTTCGTGC”: the background-corrected fluorescence amounted to 0.504 ± 0.033 (dye: Cy3 (3' terminal)) and 0.397 ± 0.027 (dye: Cy5 (3' terminal)).

Consider “TTTTTTGATCAGCATCATGCTTTTTTTTTTTTTTTCGTGA [AGTGC]”, for which the background-corrected fluorescence is 0.634 ± 0.016 (dye: Cy3 (3' terminal)) and 0.531 ± 0.037 (dye: Cy5 (3' terminal)).

For “TTTTTTGATCAGCATGAGCATTTTTTTTTTTTTTTCGTCT [TCTGC]”, the background-corrected fluorescence by setting is: (dye: Cy3 (3' terminal)) 0.485 ± 0.02; (dye: Cy5 (3' terminal)) 0.36 ± 0.015.

Turning to “TTTTTTGATCAGCATGATCATTTTTTTTTTTTTTTCGTCG [GCTGC]”, the background-corrected fluorescence reads like this: (dye: Cy3 (3' terminal)) 0.609 ± 0.03; (dye: Cy5 (3' terminal)) 0.463 ± 0.024.

With “TTTTTTGATCAGCATGATGATTTTTTTTTTTTTTTCGTCC [CCTGC]”, the background-corrected fluorescence is, setting by setting: (dye: Cy3 (3' terminal)) 0.4 ± 0.0041; (dye: Cy5 (3' terminal)) 0.315 ± 0.021.

In the case of “TTTTTTGATCAGCATGATGCTTTTTTTTTTTTTTTCGTCA [ACTGC]”, the background-corrected fluorescence was 0.547 ± 0.03 (dye: Cy3 (3' terminal)) and 0.378 ± 0.032 (dye: Cy5 (3' terminal)).

For “TTTTTTGATCAGCATGCGCATTTTTTTTTTTTTTTCGTAT [TATGC]”, the background-corrected fluorescence is, setting by setting: (dye: Cy3 (3' terminal)) 0.555 ± 0.018; (dye: Cy5 (3' terminal)) 0.401 ± 0.064.

With “TTTTTTGATCAGCATGCTCATTTTTTTTTTTTTTTCGTAG [GATGC]”, the background-corrected fluorescence worked out at 0.615 ± 0.024 (dye: Cy3 (3' terminal)) and 0.435 ± 0.03 (dye: Cy5 (3' terminal)).

As for “TTTTTTGATCAGCATGCTGATTTTTTTTTTTTTTTCGTAC”, the background-corrected fluorescence amounted to 0.49 ± 0.01 (dye: Cy3 (3' terminal)) and 0.376 ± 0.053 (dye: Cy5 (3' terminal)).

As to “TTTTTTGATCAGCATGCTGCTTTTTTTTTTTTTTTCGTAA [AATGC]”, the background-corrected fluorescence (dye: Cy3 (3' terminal)) was found to be 0.553 ± 0.045 and the background-corrected fluorescence (dye: Cy5 (3' terminal)) amounted to 0.428 ± 0.024.

In the case of “TTTTTTGATCATCAGCAGCATTTTTTTTTTTTTTTCGGTT [TTGGC]”, the background-corrected fluorescence by setting is: (dye: Cy3 (3' terminal)) 0.545 ± 0.0074; (dye: Cy5 (3' terminal)) 0.427 ± 0.024.

On to “TTTTTTGATCATCAGCATCATTTTTTTTTTTTTTTCGGTG [GTGGC]”, for which the background-corrected fluorescence by setting is: (dye: Cy3 (3' terminal)) 0.574 ± 0.02; (dye: Cy5 (3' terminal)) 0.484 ± 0.031.

For “TTTTTTGATCATCAGCATGATTTTTTTTTTTTTTTCGGTC [CTGGC]”, the background-corrected fluorescence was 0.506 ± 0.035 (dye: Cy3 (3' terminal)) and 0.407 ± 0.042 (dye: Cy5 (3' terminal)).

With “TTTTTTGATCATCAGCATGCTTTTTTTTTTTTTTTCGGTA [ATGGC]”, the background-corrected fluorescence runs as follows: (dye: Cy3 (3' terminal)) 0.589 ± 0.071; (dye: Cy5 (3' terminal)) 0.488 ± 0.029.

In the case of “TTTTTTGATCATCATCAGCATTTTTTTTTTTTTTTCGGGT [TGGGC]”, the background-corrected fluorescence is 0.7 ± 0.013 (dye: Cy3 (3' terminal)) and 0.616 ± 0.068 (dye: Cy5 (3' terminal)).

In turn, “TTTTTTGATCATCATCATCATTTTTTTTTTTTTTTCGGGG [GGGGC]” displayed a background-corrected fluorescence (dye: Cy3 (3' terminal)) of 0.673 ± 0.024 and a background-corrected fluorescence (dye: Cy5 (3' terminal)) of 0.65 ± 0.044.

With “TTTTTTGATCATCATCATGATTTTTTTTTTTTTTTCGGGC”, the background-corrected fluorescence (dye: Cy3 (3' terminal)) was 0.576 ± 0.032 and the background-corrected fluorescence (dye: Cy5 (3' terminal)) worked out at 0.487 ± 0.024.

For “TTTTTTGATCATCATCATGCTTTTTTTTTTTTTTTCGGGA [AGGGC]”, the background-corrected fluorescence worked out at 0.7 ± 0.0078 (dye: Cy3 (3' terminal)) and 0.715 ± 0.052 (dye: Cy5 (3' terminal)).

As to “TTTTTTGATCATCATGAGCATTTTTTTTTTTTTTTCGGCT”, the background-corrected fluorescence was 0.583 ± 0.016 (dye: Cy3 (3' terminal)) and 0.431 ± 0.021 (dye: Cy5 (3' terminal)).
